In paper PMC10200060, “Inhibition of DAMP actions in the tumoral microenvironment using lactoferrin-glycyrrhizin conjugate for glioblastoma therapy” (Biomaterials Research, 2023) one finds reduction of HUVEC proliferation in Transwell co-culture with U87MG (CCK-8, 24 h, 100 uM GL equivalent) and Kd data, which are given here for four substances.

The target in experiment [1] is human recombinant HMGB1 protein (high-mobility group box-1) (human) (UniProt P09429).
For experiment [2] the target is unchanged. As to the kind of experiment: SPR; human recombinant HMGB1 immobilised on a CMDH chip (immobilisation buffer 10 mM S.A., pH 4.5); analytes flowed at 30 uL/min; running buffer PBS pH 7.4; association and dissociation 3 min each; room temperature; Reichert SR7500DC, Scrubber2. (In general: In SPR one partner is held on a chip, and binding of the other changes the refractive index at the surface.)

Broadly, the Kd is the equilibrium constant for the complex coming apart.

Sequence of human recombinant HMGB1 protein (high-mobility group box-1) (human) (P09429 whole entry): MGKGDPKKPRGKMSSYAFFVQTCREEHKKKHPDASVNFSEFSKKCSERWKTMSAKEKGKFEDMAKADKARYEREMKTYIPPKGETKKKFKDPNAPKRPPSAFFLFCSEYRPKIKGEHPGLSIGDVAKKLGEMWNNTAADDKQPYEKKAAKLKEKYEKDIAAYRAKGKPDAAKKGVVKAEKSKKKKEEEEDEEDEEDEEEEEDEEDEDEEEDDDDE

“lactoferrin human (Lf) (natural protein)”: the reduction of HUVEC proliferation in Transwell co-culture with U87MG (CCK-8, 24 h, 100 uM GL equivalent) in experiment [1] was 8.2%. Also, the dissociation constant (Kd) in experiment [2] is 165 nM.
Regarding “lactoferrin-glycyrrhizin conjugate Lf-GL (1:4)”, in experiment [2], the Kd was 595 nM.
As to “lactoferrin-glycyrrhizin conjugate Lf-GL (1:10)”, the reduction of HUVEC proliferation in Transwell co-culture with U87MG (CCK-8, 24 h, 100 uM GL equivalent) in experiment [1] was 13%. Moreover, in experiment [2], the Kd came to 23.1 nM.
In the case of “lactoferrin-glycyrrhizin conjugate Lf-GL (1:15)”, in experiment [2], the Kd turned out to be 32.3 nM.
